Two proteins from article PMC5719032, “Differentially evolved glucosyltransferases determine natural variation of rice flavone accumulation and UV-tolerance” (Nature Communications, 2017) can be followed below.

Substrate in data set [1]: O=c1cc(-c2ccc(O)cc2)oc2cc(O)cc(O)c12
Put plainly: purified protein. To be noted: 1.5 mM UDP-glucose, 5 mM MgCl2, Tris-HCl pH 7.4, 37 °C.

Substrate in data set [2]: O=c1c(O)c(-c2ccc(O)cc2)oc2cc(O)cc(O)c12
Description: purified protein. To be noted: 1.5 mM UDP-glucose, 5 mM MgCl2, Tris-HCl pH 7.4, 37 °C, 3-O-glucosylation.

Substrate in data set [3]: O=c1c(O)c(-c2ccc(O)c(O)c2)oc2cc(O)cc(O)c12
Description: purified protein, by the assay type. The note with it: pH 8.0; 20.0 °C. Further details: HPLC glucoside product formation by recombinant GST-UGT, 1.5 mM UDP-glucose, Michaelis-Menten fit. As to the method:
(§1) To determine the kinetic constants of UGTs for flavonoid acceptors, their activities were determined using 0 to 400 μM different flavonoids at a fixed concentration of 1.5 mM UDP-glucose. Flavonoids were purchased from BioBioPha Co., Ltd (www.biobiopha.com/) and UDP-sugars were purchased from Sigma-Aldrich, USA. All Kinetic parameters were calculated using Michaelis-Menten model (Sigma Plot, version 12.5). All the reactions were run in duplicate, and each experiment was repeated twice. The full cDNA of UGTs from Nipponbare (O. sativa L. spp. japonica) were cloned into the pGEX-6p-1 expression vector (Novagen) with a glutathione S-transferase tag. Recombinant proteins were expressed in BL21 (DE3) cells (Novagen) following induction by addition of 0.1 mM isopropy-β-D-thiogalactoside (IPTG) and growing continually for 16 h at 20 °C. Cells were collected and pellets were resuspended in lysis buffer (50 mM Tris-HCl, pH 8.0, 400 mM NaCl). The cells were disrupted by the high pressure cracker and cell debris was removed by centrifugation (14000 g, 1 h). Glutathione Sepharose 4B agarose (GE Healthcare) was added to the supernatant containing the target proteins. After incubation for 1 h, the mixture was transferred into a disposable column and washed extensively with lysis buffer (5 column volumes). Target proteins in collections were confirmed by SDS-PAGE and purified recombinant proteins were selected for enzyme assays and kinetics determination.

Substrate in data set [4]: O=c1cc(-c2ccc(O)c(O)c2)oc2cc(O)cc(O)c12
Description: purified protein, by the assay type. The note with it: pH 8.0; 20.0 °C. Further details: HPLC glucoside product formation by recombinant GST-UGT, 1.5 mM UDP-glucose, Michaelis-Menten fit. How it is done: as §1

For orientation: Km means the concentration of substrate that gives half-maximal velocity. Broadly, the kcat is the number of substrate molecules converted per active site and unit of time at saturation. For orientation: kcat/Km means the turnover number divided by the Michaelis constant.

B1: OsUGT706D1 (Oryza sativa Japonica Group) (protein)
chain: MESKPSRNVVLYAAMGAGHLLPMVELAKLFLTRGLDVTIAVPATPGSGTTGSPTIAGIAASNPSITFHHLPPPPSCADPDPNPLLLMLDVLRRSVPSLASLLRSIPSVAALVLDIFCAEAVDAAAALHVPAYIYFTSAAGAFAASLGLMHHYSTTTTNLRDMGKALLRFPGVPPIPASDMPSLVQDREGRFYKARVKLYARAMEASGVLLNTYEWLEARAMGALREGACSPDRPTPPVYCVGPLVASGEEEGGGVRHACLAWLDAQPARSVVFLCFGSMGSFSAAQLKEIARGLESSGHRFLWVVRSPRQDPANLLEHLPEPDLAALLPEGFLERTADKGMVVKSWAPQAKVLRHAATAAFVTHCGWNSTLEGITAGVPLLCWPLYAEQRMNKVFIVEEMKVGVVIDGYDEEMVSAEEVEAKVRLVMESEEGGKLLERLAVARAKAVEALAEEGPSRVAFDEFIDRLVTSE
notes: full cDNA in pGEX-6p-1, N-terminal GST fusion, E. coli BL21(DE3), glutathione Sepharose purified
Regarding B1, the Km in data set [1] (7-O-glucosylation) turned out to be 17.7 ± 1.3 µM; in data set [2] it was 16.8 ± 1.3 µM; in data set [3], 11.9 ± 1.9 µM; in data set [4] it was 11.6 ± 0.35 µM. In addition, the turnover number (kcat) in data set [1] (7-O-glucosylation) worked out at 0.7 ± 0.02 s⁻¹; in data set [2], 0.4 ± 0.01 s⁻¹; in data set [3], 0.07 s⁻¹; in data set [4], 0.4 ± 0.2 s⁻¹. Also, in data set [4], the kcat/Km is 40000 M⁻¹ s⁻¹.

B2: OsUGT707A2 (Oryza sativa Japonica Group) (protein)
chain: MAPAMASSAATVVLIPFCVSGHLTPMLEVGKRMLRSRCCGDDDDGRPAMSLTVLLAQLPESHRAPEIDEIIRREAAGASEHSGFDVRFHCLPAEELPDFRGGEDFISRFMQQHASHAREAIAGLESRVAAVVLDWFCTTLLDVTRDLGLPGYVFFTSAASMLSLLLRLPALDKEVAVDFEEMGGAVDLPGLPPVPAALLPTPVMKKGCNYEWLVYHGSRFMEAAGIIVNTVAELEPAVLEAIADGRCVPGRRVPAIYTVGPVLSFKTPPEKPHECVRWLDAQPRASVVFLCFGSMGSFAPPQVLEIAAGLERSGHRFLWVLRGRPPAGSPYPTDADADELLPEGFLERTKGRGMVWPTWAPQKDILAHAAVGGFVTHGGWNSTLESLWHGVPMAPWPLYAEQHLNAFELVRDMGVAVEMEVDRKRGNLVEAAELERAVRCLMDEGSEEGRMAREKAAAAKAACRNAVDGGGSSIAALRKLTQEMAHMSSI
notes: as for B1
As for B2, the Michaelis-Menten constant (Km) worked out at 8.9 ± 1.8 µM in data set [1] (5-O-glucosylation), 6.7 ± 0.7 µM in data set [2], 5.1 ± 0.6 µM in data set [3] and 1.5 ± 0.5 µM in data set [4]. The kcat in data set [1] (5-O-glucosylation) was 0.4 ± 0.06 s⁻¹; in data set [2], 0.20 ± 0.01 s⁻¹; in data set [3], 0.06 ± 0.01 s⁻¹; in data set [4] it was 0.05 ± 0.01 s⁻¹. For the same protein, the kcat/Km in data set [3] amounted to 10000 M⁻¹ s⁻¹; in data set [4], 30000 M⁻¹ s⁻¹.
